Assay results as given in US20210292423A1 (published 2021).

B1: single chain CD123 × CD3 bi-specific diabody in DART format MGD006 (bispecific antibody)
chain 1: QAVVTQEPSLTVSPGGTVTLTCRSSTGAVTTSNYANWVQQKPGQAPRGLIGGTNKRAPWTPARFSGSLLGGKAALTITGAQAEDEADYYCALWYSNLWVFGGGTKLTVLGGGGSGGGGEVQLVQSGAELKKPGASVKVSCKASGYTFTDYYMKWVRQAPGQGLEWIGDIIPSNGATFYNQKFKGRVTITVDKSTSTAYMELSSLRSEDTAVYYCARSHLLRASWFAYWGQGTLVTVSSGGCGGGEVAALEKEVAALEKEVAALEKEVAALEK
chain 2: DFVMTQSPDSLAVSLGERVTMSCKSSQSLLNSGNQKNYLTWYQQKPGQPPKLLIYWASTRESGVPDRFSGSGSGTDFTLTISSLQAEDVAVYYCQNDYSYPYTFGQGTKLEIKGGGSGGGGEVQLVESGGGLVQPGGSLRLSCAASGFTFSTYAMNWVRQAPGKGLEWVGRIRSKYNNYATYYADSVKDRFTISRDDSKNSLYLQMNSLKTEDTAVYYCVRHGNFGNSYVSWFAYWGQGTLVTVSSGGCGGGKVAALKEKVAALKEKVAALKEKVAALKE
notes: two chains covalently bonded by a disulfide bond; also called Single chain antibody DART format MGD006
B2: CODV-Fab-TL1 hz20G6xhz7G3 antibody-like binding protein (bispecific antibody, human IgG1, kappa, L234A L235A)
light: DIVMTQSPDSLAVSLGERATINCESSQSLLNSGNQKNYLTWYQQKPGQPPKPLIYWASTRESGVPDRFSGSGSGTDFTLTISSLQAEDVAVYYCQNDYSYPYTFGQGTKLEIKGGSGSSGSGGDIVMTQTPLSLSVTPGQPASISCKSSQSLVHNNANTYLSWYLQKPGQSPQSLIYKVSNRFSGVPDRFSGSGSGTDFTLKISRVEAEDVGVYYCGQGTQYPFTFGSGTKVEIKGGSGSSGSGGRTVAAPSVFIFPPSDEQLKSGTASVVCLLNNFYPREAKVQWKVDNALQSGNSQESVTEQDSKDSTYSLSSTLTLSKADYEKHKVYACEVTHQGLSSPVTKSFNRGECDKTHTCPPCPAPEAAGGPSVFLFPPKPKDTLMISRTPEVTCVVVDVSHEDPEVKFNWYVDGVEVHNAKTKPREEQYNSTYRVVSVLTVLHQDWLNGKEYKCKVSNKALPAPIEKTISKAKGQPREPQVYTLPPSRDELTKNQVSLTCLVKGFYPSDIAVEWESNGQPENNYKTTPPVLDSDGSFFLYSKLTVDKSRWQQGNVFSCSVMHEALHNRFTQKSLSLSPG
heavy: not shown
notes: one chain of formula IV and one of formula III, IgG1 backbone; also called hz20G6xhz7G3 CODV-Fab-TL1

Legend:
[1] = biological target: T1, human CD3ε/δ-Fc fusion protein (soluble recombinant CD3ε/δ complex) (human, UniProt P04234 22-105); assay: SPR Biacore
T1 construct: also called huCD3ε/δ; huCD3; not shown: hinge, CH2, CH3 of human IgG with tag

[2] = biological target: T2, human CD123 Strep-II tagged Fc-fusion protein (human); assay: SPR Biacore
T2 construct: also called human CD123-Fc; recombinant CD123

[3] = biological target: T3, human CD3 (TCR complex) on primary human T cells or Jurkat cells (human, UniProt P07766 23-207); assay: cell-based or functional assay
[4] = biological target: human CD123 (IL3RA) on cells (human, UniProt P26951 19-378); assay: cell-based or functional assay
[5] = biological target: T3, human CD3 (TCR complex) on primary …; assay: cell-based or functional assay; remark: listed apart in the source

T3 sequence (P07766 23-207, one chain of several): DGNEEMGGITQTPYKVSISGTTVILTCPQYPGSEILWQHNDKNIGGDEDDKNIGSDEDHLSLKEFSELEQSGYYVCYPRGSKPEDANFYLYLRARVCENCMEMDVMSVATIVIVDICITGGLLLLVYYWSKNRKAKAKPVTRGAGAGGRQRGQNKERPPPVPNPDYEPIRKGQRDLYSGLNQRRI
Sequence of human CD123 (IL3RA) on cells (P26951 19-378): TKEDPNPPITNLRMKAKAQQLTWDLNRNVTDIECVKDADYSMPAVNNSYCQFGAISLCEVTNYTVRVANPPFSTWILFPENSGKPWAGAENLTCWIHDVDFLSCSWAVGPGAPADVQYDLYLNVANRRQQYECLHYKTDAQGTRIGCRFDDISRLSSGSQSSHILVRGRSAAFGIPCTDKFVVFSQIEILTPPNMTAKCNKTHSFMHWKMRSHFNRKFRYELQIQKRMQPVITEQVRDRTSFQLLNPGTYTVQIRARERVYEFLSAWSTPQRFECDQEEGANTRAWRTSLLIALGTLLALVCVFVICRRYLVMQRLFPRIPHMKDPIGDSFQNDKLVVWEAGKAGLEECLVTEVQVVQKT
T1 sequence (chain, as listed by the source mutant, chain 1 of 2): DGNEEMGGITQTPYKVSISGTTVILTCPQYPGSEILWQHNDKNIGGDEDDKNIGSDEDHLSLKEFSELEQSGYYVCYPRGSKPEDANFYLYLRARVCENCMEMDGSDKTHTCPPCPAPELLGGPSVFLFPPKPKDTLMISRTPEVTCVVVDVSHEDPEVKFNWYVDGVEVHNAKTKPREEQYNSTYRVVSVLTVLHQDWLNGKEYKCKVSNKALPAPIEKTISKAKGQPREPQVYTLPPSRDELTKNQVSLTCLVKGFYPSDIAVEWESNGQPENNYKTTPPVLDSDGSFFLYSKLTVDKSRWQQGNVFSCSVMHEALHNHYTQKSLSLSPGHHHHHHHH
T1 sequence (P04234 22-105, stated change not applied, chain 2 of 2): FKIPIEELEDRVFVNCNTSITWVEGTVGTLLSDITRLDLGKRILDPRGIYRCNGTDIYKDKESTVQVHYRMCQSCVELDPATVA
T2 sequence (chain, as listed by the source limits assumed): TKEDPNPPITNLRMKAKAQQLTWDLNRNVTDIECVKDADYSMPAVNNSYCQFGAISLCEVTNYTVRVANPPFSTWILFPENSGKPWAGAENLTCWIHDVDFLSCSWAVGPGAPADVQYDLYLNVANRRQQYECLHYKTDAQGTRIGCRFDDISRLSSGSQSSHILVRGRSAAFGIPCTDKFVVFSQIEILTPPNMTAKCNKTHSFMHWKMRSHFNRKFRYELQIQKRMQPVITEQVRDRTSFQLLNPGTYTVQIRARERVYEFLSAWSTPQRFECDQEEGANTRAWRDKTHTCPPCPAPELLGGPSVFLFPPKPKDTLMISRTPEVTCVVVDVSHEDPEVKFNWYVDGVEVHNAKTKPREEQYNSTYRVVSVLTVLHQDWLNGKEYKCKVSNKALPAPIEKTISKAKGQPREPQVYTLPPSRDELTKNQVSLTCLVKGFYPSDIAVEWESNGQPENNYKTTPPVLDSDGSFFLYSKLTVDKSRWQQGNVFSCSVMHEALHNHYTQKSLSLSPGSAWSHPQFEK

Row | Binder | Kd [1] | Kd [2] | T cell activation with THP-1 target cells, CD4+ T cells (% CD69+ cells) EC50 (pM) [3] | T cell activation with THP-1 target cells, CD8+ T cells (% CD69+ cells) EC50 (pM) [3] | Cytotoxic assay (THP cells) EC50 [pM] [4] | Jurkat-NFAT-Luc reporter, no target cells, activation at Cmax in relation to max. activation in assay with target cells (%) [5] | Jurkat-NFAT-Luc reporter, with THP1 cells, EC50 (pM) [5]
1 | B1 | 9 nM | 0.2 nM | 1 pM | 3.5 pM | 0.3 pM | 25.1% | 370 pM
2 | B2 | 11 nM | 0.2 nM | 3.2 pM | 9.9 pM | 1 pM | 0.4% | 444 pM
